Residue numbers refer to the chain shown, from its start.
B1: CSTB G4 in dsDNA (mixed)
DNA 1: CCTGAAGCAGACAGCTAGTGAATTCGGGGCGGGGCGCGGGGCGGGGTACTTGCGTATAACTGTTCCATAGT
DNA 2: ACTATGGAACAGTTATACGCAAGTATTTTTTTTTTTTTTTTTTTTTGAATTCACTAGCTGTCTGCTTCAGG
B2: T4B1 G4 in dsDNA (mixed)
DNA 1: CCTGAAGCAGACAGCTAGTGAATTCGTTTTGGTGGGTGGGTGGGTACTTGCGTATAACTGTTCCATAGT
DNA 2: B1 DNA 2
B3: C9orf72 G4 in dsDNA (mixed)
DNA 1: CCTGAAGCAGACAGCTAGTGAATTCGGGGCCGGGGCCGGGGCCGGGGTACTTGCGTATAACTGTTCCATAGT
DNA 2: B1 DNA 2
B4: BCL-2 G4 in dsDNA (mixed)
DNA 1: CCTGAAGCAGACAGCTAGTGAATTCGGGCGCGGGAGGAAGGGGGCGGGTACTTGCGTATAACTGTTCCATAGT
DNA 2: B1 DNA 2
B5: T1B1 G4 in dsDNA (mixed)
DNA 1: CCTGAAGCAGACAGCTAGTGAATTCGTGGTGGGTGGGTGGGTACTTGCGTATAACTGTTCCATAGT
DNA 2: B1 DNA 2
B6: B4-dx2 G4 in dsDNA (mixed)
DNA 1: CCTGAAGCAGACAGCTAGTGAATTCGGATCTGAGAATCAGATGTGGGTGGGTGGGTACTTGCGTATAACTGTTCCATAGT
DNA 2: B1 DNA 2
B7: Tel G4 in dsDNA (mixed)
DNA 1: CCTGAAGCAGACAGCTAGTGAATTCGGGTTAGGGTTAGGGTTAGGGTACTTGCGTATAACTGTTCCATAGT
DNA 2: B1 DNA 2
B8: non-G4 dsDNA (dsDNA)
DNA 1: CCTGAAGCAGACAGCTAGTGAATTCAAAAAAAAAAAAAAAAAAAAATACTTGCGTATAACTGTTCCATAGT
DNA 2: B1 DNA 2
B9: MYC G4 in dsDNA (mixed)
DNA 1: CCTGAAGCAGACAGCTAGTGAATTCGGGTGGGGAGGGTGGGGTACTTGCGTATAACTGTTCCATAGT
DNA 2: B1 DNA 2
B10: PDGFRB G4 in dsDNA (mixed)
DNA 1: CCTGAAGCAGACAGCTAGTGAATTCGGGGGGGCGGCGGGGTACTTGCGTATAACTGTTCCATAGT
DNA 2: B1 DNA 2
B11: MYOG in dsDNA (no G4 formed) (mixed)
DNA 1: B10 DNA 1 with G29T, G34T, C36G, G38A
DNA 2: B1 DNA 2
B12: C-Kit G4 in dsDNA (mixed)
DNA 1: B2 DNA 1 with T27G, T28G, T29C, T30G, T33C, G35C, T37A, T41A
DNA 2: B1 DNA 2

Biological target: Human DNA topoisomerase 1 (Top1) (Homo sapiens, UniProt P11387 1-765)
Sequence (P11387 whole entry): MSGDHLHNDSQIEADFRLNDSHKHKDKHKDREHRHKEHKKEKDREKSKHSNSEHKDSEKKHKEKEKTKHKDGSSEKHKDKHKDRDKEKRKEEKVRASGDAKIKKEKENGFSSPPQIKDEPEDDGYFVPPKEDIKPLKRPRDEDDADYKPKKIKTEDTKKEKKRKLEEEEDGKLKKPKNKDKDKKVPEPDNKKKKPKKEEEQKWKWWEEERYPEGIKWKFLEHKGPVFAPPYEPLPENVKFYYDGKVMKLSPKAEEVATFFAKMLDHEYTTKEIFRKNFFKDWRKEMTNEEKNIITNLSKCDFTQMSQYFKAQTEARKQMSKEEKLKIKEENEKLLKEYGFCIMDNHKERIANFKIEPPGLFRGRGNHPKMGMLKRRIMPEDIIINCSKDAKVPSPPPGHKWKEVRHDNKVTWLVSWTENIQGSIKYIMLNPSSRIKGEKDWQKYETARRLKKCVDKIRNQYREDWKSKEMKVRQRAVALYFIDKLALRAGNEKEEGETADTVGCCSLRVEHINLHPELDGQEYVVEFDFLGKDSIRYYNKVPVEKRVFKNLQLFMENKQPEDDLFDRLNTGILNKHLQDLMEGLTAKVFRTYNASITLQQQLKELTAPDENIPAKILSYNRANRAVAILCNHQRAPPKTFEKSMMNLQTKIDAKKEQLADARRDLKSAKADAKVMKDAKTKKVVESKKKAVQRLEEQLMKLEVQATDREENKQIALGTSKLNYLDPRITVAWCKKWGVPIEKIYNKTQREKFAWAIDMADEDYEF
Experiment: EMSA

Binder | binding result
B1 | binds
B2 | binds
B3 | binds
B4 | binds
B5 | binds
B6 | binds
B7 | binds
B8 | no binding
B9 | binds
B10 | binds
B11 | no binding
B12 | binds

From paper PMC10954455
